Measured values as given in US20220356229A1 (published 2022).

Columns and labels:
[1] = biological target: SARS-CoV-2 Spike (S) protein, wild type (SARS-CoV-2, UniProt P0DTC2 14-1208); experiment: HT-SPR Carterra LSA; mAb coupled to chip, Spike in solution; 1:1 Langmuir fit
[2] = biological target: SARS-CoV-2 full length Spike protein, wild type (SARS-CoV-2, UniProt P0DTC2 14-1208)
[3] = biological target: SARS-CoV Spike protein (SARS-CoV, UniProt P59594 14-1190)

| Binder | Kd [1] | koff [1] | kon [1] | bead binding signal (fold over isotype) [2] | further results |
| --- | --- | --- | --- | --- | --- |
| anti-SARS-CoV-2 antibody 1015 (antibody, V domains shown) VH: EVQLVESGGGLVQPGGSLRLSCAASGFTFSSYWMHWVRQAPGKGLVWVSHINSDGSSTSYADSVKGRFTISRDNAKNTLYLQMNSLRAEDTAVYYCARGLRYFDLDVWGQGTTVTVSS VL: QSVLTQPPSVSEAPRQRVTISCSGSSSNIGNNAVNWYQQLPGKAPKLLIFYDDLLPSGVSDRFSGSKSGTSASLAISGLQSEDEADYYCAAWDDSLNGGVFGGGTKLTVLG | 0.0439 nM | 2.19e-05 s⁻¹ | 500000 M⁻¹ s⁻¹ | – | – |
| antibody 324 (antibody, V domains shown) VH: QVQLQESGPGLVKPSGTLSLTCAVSGGSISSSNWWSWVRQPPGKGLEWIGEIYHSGSTNYNPSLKSRVTISVDNSKNQFSLKLSSVTAADTAVYYCARESVAAAGISYYYYGMDVWGQGTTVTVSS VL: EIVLTQSPGTLSLSPGERATLSCRASQSVSGRYLAWYQQKPGQAPRLLIYGASSRATGIPDRFSGSGSGTDFTLTISRLEPEDFAVYYCQHYGSSPGTFGQGTRLEIK | – | – | – | 1.13 fold over isotype | – |
| antibody 328 (antibody, V domains shown) VH: QVQLQESGPGLVKPSGTLSLTCAVSGGSISSSNWWSWVRQPPGKGLEWIGEIYHSGSTNYNPSLKSRVTISVDNSKNQFSLKLSSVTAADTAVYYCARESVAAAGISYYYYGMDVWGQGTTVTVSS VL: DIQMTQSPSSLSASVGDRVTITCRASQGIRNDLGWYQQKPGKAPKRLIYAASSLQSGVPSRFSGSGSGTEFTLTVSGLQPEDFATYYCLQYNSSPLTFGGGTKVEIK | – | – | – | 1.2 fold over isotype | – |
| antibody 332 (antibody, V domains shown) VH: QVTLRESGPALVKPTQTLTLTCTFSGFSLSTSGMCVSWIRQPPGKALEWLALIDWDDDKYYSTSLKTRLTISKDTSKNQVVLTMTNMDPVDTATYYCARIHDDILTGYHYVDYWGQGTLVTVSS VL: not shown | – | – | – | 1.22 fold over isotype | – |
| anti-SARS-CoV-2 antibody 1149 (antibody, V domains shown) VH: QVQLVQSGAEVKKPGASVKVSCKASGYTFASYDINWVRQATGQGPEWMGWMIPNIGNTGYAQKFQGRVTMTRNTSISTAYMELSSLTSEDTAVYYCARVSRLFNDFGLRHEAPVDFWGQGTRVTVSS VL: QSVLTQPPSVSGAPGQRVTISCTGSSSNIGAGYDVHWYQQLPGTAPKLLIYGYSSRPSGVPDRFSGSKSGTSASLAITGLQAEDEADYYCQSYDSSLSVLFGGGTKLTVLG | ≤ 0.0151 nM | ≤ 1e-05 s⁻¹ | 664000 M⁻¹ s⁻¹ | – | – |
| antibody 316 (antibody, V domains shown) VH: QVHLVESGGGVVQPGRSLRLSCAASGFTLTAYAMHWVRQAPGKRLEWVALISYDGSVKKYADSVKGRITVSGDTSTNTLHLQMNSLRADDTAVYYCVRGGVSGPNSFDLWGQGTMVTVSS VL: DVVMTQSPLSLPVTLGQPASMSCRSSQSLEYSDGNTYVNWFHQRPGQSPRRLIYKVSYRDSGVPDRFSGSGSGTDFTLQISRVEAEDVGIYYCMQGTHWPVTFGQGTKVEIK | – | – | – | 442 fold over isotype | – |
| antibody 327 (antibody, V domains shown) VH: QVQLVESGGGVVQPGRSLRLSCAASGFNLSNYAMHWVRQASGKGLEWVSLISYDGSIKYYTDSVKGRFTVSGDNSKNTLFLQMNSLRPDDSALYYCVRGGVSGPNSFDMWGQGTTVTVSS VL: DVVMTQSPLSLPVTLGQPASISCRSSQSLVYSDGNTYVNWFQQRPGQSPRRLIYQVSIRASGVPDRFSGSGSGTDFALKISRVEAEDVGIYYCMQGTHWPVTFGQGTKVEIK | – | – | – | 413 fold over isotype | – |
| anti-SARS-CoV-2 antibody 970 (antibody, V domains shown) VH: EVQLVESGGGLVQPGGSLRLSCAASGFTFSSYWMSWVRQAPGKGLEWVANINKDGSEKYYVDSVKGRFTISRDNAKNSLYLQMNSLRAEDTAVYFCARDYRYFDWLLSQIDLEIDYFDYWGQGTLVTVSS VL: not shown | 0.482 nM | 0.00034 s⁻¹ | 706000 M⁻¹ s⁻¹ | – | – |
| anti-SARS-CoV-2 antibody 1075 (antibody, V domains shown) VH: QVQLVQSGAEVKKPGASVKVSCKVSGYTLIELSMHWVRQAPGKGLEWMGGFDPEDGETIYAQKFQGRVTMTEDTSTDTAYMELSSLRSEDTAVYYCATEWAYYGSGSYLGYWGQGTLVTVSS VL: EIVMTQSPATLSVSPGERATLSCRASQSVSSNLAWFQQKPGQAPRLLIYGASTRVTVIPARFSGSGSGTEFTLTISSLQSEDFAVYYCQQYNNWPRTFGQGTKVEIKR | 0.717 nM | 3.04e-05 s⁻¹ | 227000 M⁻¹ s⁻¹ | – | – |
| antibody 333 (antibody, V domains shown) VH: QVHLVESGGGVVLPGRSLRLSCSASQFIFSNYDMHWVRQSPGMGLEWVAGISSDGSDKYYIDSVRGRFTISRDNAKNTLFLQMNSLTTEDTAVYSCAKGGGKFGQYWGRGTLVTVSS VL: AIQMTQSPSSLSASVGDRVTITCRASQVIRNDLAWFQQKPGEAPNLLVYSASNLQSGVPSRFSGSGSGTDFTLTISSLQPEDFATYYCLQDYSYPYTFGQGTKLDMK | – | – | – | 1.08 fold over isotype | – |
| antibody 326 (antibody, V domains shown) VH: QITLKESGPTLVKPTQTLTLTCTFSGFSLNTSGVGVGWIRQPPGKALEWLSLIFWNDDKRYSPSLRSRLTITKDTSKNQVVLTMTNMDPVDTATYFCAHRNSGWSLKFDSWGQGSLVTVSA VL: DIQMTQSPSSVSASVGDRVTITCRARQGISSWLVWYQQKPGKAPKLLIFGASSLQSGVPSRFNASGTGTEFTLTISSLQPEDFATYYCQQADSFPITFGQGTRLEIK | – | – | – | 193 fold over isotype | – |
| antibody 329 (antibody, V domains shown) VH: EVQLVESGGGLVQPGGSLRLSCAASGFTFSSYWMHWVRQAPGKGLVWVSRINSDGSSTSYADSVKGRFTISRDNAKNTLYLQMNSLRAEDTAVYYCAREGIVATITLDYWGQGTLVTVSS VL: not shown | – | – | – | 497 fold over isotype | – |
| antibody 380 (antibody, V domains shown) VH: QVQLVESGGGVVQPGRSLRLSCAASGFTLKNYGMHWVRQAPGKGLEWVIVLSFDGSDEYKADSVRGRFTVSRDNSKNTLFLQMNSLRPDDTAVYYCAREQPTMIEGGRGPFDIWGQGTMVTVSS VL: EVVMTQSPATLSVSPGDRATLSCRASQGVNSNLAWYQQKPGQAPRLLIYAASTRATGIPARFSASGSGTHFTLTISSLQSEDFAVYYCLQYNNWPPWTFGQGTKLEIK | – | – | – | – | bead binding signal (median fluorescence, fold over isotype control) [3]: 1.21 fold over isotype control |
| anti-SARS-CoV-2 antibody 851 (antibody, V domains shown) VH: QITLKESGPTLVKPTQTLTLTCTFSGFSLSTNGVGMGWIRQPPGKALEWLALIYWDDDQFYSPSLKSRLTITRDTSKNQVVLTMTNMDPVDTATYYCAQAFYESFGFYSWGQGTLVTVSS VL: NFMLTQPHSVSESPGKTVIISCTRSIGSIASNYVQWYQQRPGSAPTIVVFEDNERPSGVPDRFSGSIDRSSNSASLTISGLKTEDEADYYCQSYDGSSELVFGGGTKLTVLG | ≤ 1.44 nM | ≤ 1e-05 s⁻¹ | 6960 M⁻¹ s⁻¹ | – | – |
| anti-SARS-CoV-2 antibody 1037 (antibody, V domains shown) VH: QITLKESGPTLVKPTQTLTLTCTFSGFSLSTSGVGVGWIRQPPGKALEWLALIYWDDDKRYSPSLKSRLTITKDTSKNQVVLTMTNMDPVDTATYYCAHHTITRINDYWGQGTLVTVSS VL: QSALTQPASVSGSPGQSITISCTATSSDVGAYNYVSWYQQHPGKAPKLMIYDVSKRPSGVSNRFSGSKSGNTASLTISGLQAEDEADYYCSSYTSSSTVFGGGTKLTVLG | 0.0319 nM | 1.36e-05 s⁻¹ | 443000 M⁻¹ s⁻¹ | – | – |
| anti-SARS-CoV-2 antibody 923 (antibody, V domains shown) VH: EVQLVESGGGVVRPGGSLRLSCAASGFIFDDYDMTWVRQAPGKGLEWVSGISWNGGNTGYADSVKGRFTISRDNAKNSLYLQMNSLRAEDTALYHCAVIMSPIPRYSGYDWAGGAFDIWGQGTMVTVSS VL: SSELTQDPAVSVALGQTVRITCQGDSLRSYYASWYQQKPGQVPILVIYDKNNRPSGIPDRFSGSSSGNTASLTITGAQAEDEADYYCNSRDSSGNAVVFGGGTKLTVLG | ≤ 0.0161 nM | ≤ 1e-05 s⁻¹ | 653000 M⁻¹ s⁻¹ | – | – |
| antibody 323 (antibody, V domains shown) VH: QVQLVQSGAEVKKPGASVKVSCKVSGYTLTELSMHWVRQAPGKGLEWMGGFDPEDGETIYAQKFQGRVTMTEDTSTDTAYMELSSLRSEDTAVYYCATSTIFAPGGWFDPWGQGTLVTVSS VL: QSALTQPASVSGSPGQSITISCTGTSSDVGSYNLVSWYQQHPGKAPKLMIYEVSKRPSGVSNRFSGSKSGNTASLTISGLQAEDEADYYCCSYAGSTHYVFGTGTKVTVL | – | – | – | 994 fold over isotype | – |
| antibody 317 (antibody, V domains shown) VH: QVQLVQSGAEVKKPGASVKVSCKVSGYTLTELSMHWVRQAPGKGLEWMGGFDPEDGETIYAQKFQGRVTMTEDTSTDTAYMELSSLRSEDTAVYYCASSPAAAGTSQYYYYYGMDVWGQGTTVTVSS VL: not shown | – | – | – | 890 fold over isotype | – |
| antibody 320 (antibody, V domains shown) VH: QVQLVQSGAEVKKPGASVKVSCKASGYTFTSYGISWVRQAPGQGLEWMGWISAYNGNTNYAQKLQGRVTMTTDTSTRTAYMELRSLRSDDTAVYYCARVGCYYDSSGYSCAENFQHWGQGTLVTVSS VL: QSVLTQPPSVSGAPGQRVTISCTGSSSNIGAGYDVHWYQQLPGTAPKLLIYGNSNRPSGVPDRFSGSKSGTSASLAITGLQAEDEADYYCQSYDSSLSALFGGGTKLTVL | – | – | – | 1200 fold over isotype | – |
| antibody 331 (antibody, V domains shown) V domain 1: QITLKESGPTLVKPTETLTLTCSFSGFSLTKTGEAAGWIRQAPGRALEWVTVIFWDDDKRYSPSLQNRISVTKDTSKNQVVLRMTNVARFDTGTYFCWAMGGPGKEYFGQGTLVAVSS V domain 2: QSVLTQPPSVSGAPGQRVTISCTGTSSSIGPYSDVHWYQHVSGKAPRLLIFGNSNRPSGVPDRFSGSKSGTSASLVIAGLQAEDEADYYCQSYDSSLGEIYVFGTGTTVTVL | – | – | – | 850 fold over isotype | – |
| antibody 339 (antibody, V domains shown) V domain 1: QITLKESGPTLVKPTETLTLTCSFSGFSLTRTGEAAGWIRQAPGRALEWVTVIFWDDDKRYSPSLQSRLTVTKDTSKNQVVLTMTNVARFDTATYFCWAMGGPGKEYFGQGTQVAVSS V domain 2: QSVLTQPPSVSGAPGQRVTISCTGTSSSIGPYSDVHWYQHVSGKAPRLLIFGNSNRPSGVPDRFSGSKSGTSASLVIAGLQAEDEADYYCQSYDSSLGEIYVFGTGTTVTVL | – | – | – | 874 fold over isotype | – |
| anti-SARS-CoV-2 antibody 1139 (antibody, V domains shown) VH: QVQLVQSGAEVKKPGASVKVSCKASGYTFSSYEINWVRQATGQGLEWMGRMTLNSGNTGYAQNFQGRVTMTRDTSISTAYMELSGLRSEDTAVYYCARMRSGWPTHGRPDDYWGQGTLVTVSS VL: not shown | 0.0433 nM | 5.31e-05 s⁻¹ | 1.22e+06 M⁻¹ s⁻¹ | – | – |
